Measured values from patent US20140105889A1 (published 2014).
Changes are numbered by the printed parent chain. Numbers in names are those of the source. Read-outs that look alike come from different tables or passages of the source.

How the values were obtained:
[1] = biological target: T1, human FcγRIIb (human, UniProt P31994 43-217, limits assumed); test: ratio of this variant's SPR KD for FcγRIIaH to its KD for FcγRIIb
T1 construct: also called FcγIIB; hFcgRIIb
T1 sequence: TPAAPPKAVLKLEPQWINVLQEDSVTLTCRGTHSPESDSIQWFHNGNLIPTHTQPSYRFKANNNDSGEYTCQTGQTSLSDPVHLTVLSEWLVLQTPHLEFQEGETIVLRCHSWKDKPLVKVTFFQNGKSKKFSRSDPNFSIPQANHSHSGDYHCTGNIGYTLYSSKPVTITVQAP

[2] = biological target: T1, human FcγRIIb; test: ratio of this variant's SPR KD for FcγRIIaR to its KD for FcγRIIb
[3] = biological target: T2, human FcγRIIa type R (human, UniProt P12318 36-217); test: SPR (Biacore), captured antibody, FcγR as analyte, 25 C
T2 construct: also called FcγRIIaR; FcγRIIa(R)
T2 chain: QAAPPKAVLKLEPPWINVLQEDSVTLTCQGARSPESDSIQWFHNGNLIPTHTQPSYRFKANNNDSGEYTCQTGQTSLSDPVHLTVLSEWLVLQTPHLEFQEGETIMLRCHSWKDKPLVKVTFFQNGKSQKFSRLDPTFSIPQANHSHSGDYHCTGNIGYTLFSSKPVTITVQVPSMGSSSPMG

[4] = biological target: T1, human FcγRIIb; test: SPR KD for FcγRIIb of parent IL6R-B3/IL6R-L divided by that of this variant
[5] = biological target: T3, FcγRIIb (human, UniProt P31994 43-217, limits assumed); test: SPR (Biacore), antibody captured on chip, FcγR as analyte, method of Example 14
T3 construct: Soluble analyte in Biacore; also called FcgRIIb; FcγIIB
T3 sequence: T1 sequence

[6] = biological target: T4, FcγRIIIa type V (human, UniProt P08637 17-208, limits assumed); test: as above
T4 construct: Soluble analyte in Biacore; also called FcγRIIIaV; FcγRIIIa(V)
T4 sequence (P08637 other isoform, or with tags, fused parts or gaps limits assumed): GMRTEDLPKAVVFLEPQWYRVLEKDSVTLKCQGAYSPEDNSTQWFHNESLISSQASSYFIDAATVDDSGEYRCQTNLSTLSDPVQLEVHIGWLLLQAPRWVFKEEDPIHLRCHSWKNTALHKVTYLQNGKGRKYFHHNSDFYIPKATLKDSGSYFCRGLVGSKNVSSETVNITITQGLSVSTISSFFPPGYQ

[7] = biological target: T3, FcγRIIb; test: SPR (Biacore); ratio against the parent IL6R-B3/IL6R-L
[8] = biological target: T5, FcγRIIa type H (human, UniProt P12318 36-217); test: SPR (Biacore), antibody captured on chip, FcγR as analyte, method of Example 14
T5 construct: Soluble analyte in Biacore; also called FcγRIIaH; FcγRIIa(H)
T5 sequence: T2 chain with R133H

[9] = biological target: T6, human FcRn (soluble human FcRn complexed with beta2-microglobulin) (human, UniProt P61769 21-119); test: Biacore SPR, antibody captured on Protein L, human FcRn analyte, pH 7.0
T6 construct: Soluble human FcRn complexed with beta2-microglobulin; also called hFcRn

[10] = biological target: T7, human FcRn (soluble human FcRn complexed with β2-microglobulin) (human, UniProt P61769 21-119); test: SPR (Biacore), Protein L capture, hFcRn analyte, pH 7.0
T7 construct: also called hFcRn
T7 sequence (chain, as listed by the source limits assumed, chain 1 of 2): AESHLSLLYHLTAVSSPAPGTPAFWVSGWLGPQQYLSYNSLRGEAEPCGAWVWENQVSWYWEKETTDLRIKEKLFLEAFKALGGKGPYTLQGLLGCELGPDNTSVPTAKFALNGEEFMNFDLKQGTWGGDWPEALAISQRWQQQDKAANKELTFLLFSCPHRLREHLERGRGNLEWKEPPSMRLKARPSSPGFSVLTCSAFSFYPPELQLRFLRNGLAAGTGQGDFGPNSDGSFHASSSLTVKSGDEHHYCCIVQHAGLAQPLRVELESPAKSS
T7 sequence (P61769 21-119 limits assumed, chain 2 of 2): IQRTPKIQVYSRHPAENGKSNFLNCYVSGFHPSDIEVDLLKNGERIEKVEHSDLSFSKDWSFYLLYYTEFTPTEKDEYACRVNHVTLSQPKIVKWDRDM

[11] = biological target: T6, human FcRn (soluble human FcRn …); test: Biacore SPR, antibody captured on Protein L, human FcRn analyte, pH 7.0; remark: listed apart in the source
[12] = biological target: T6, human FcRn (soluble human FcRn …); test: as above; remark: listed apart in the source
[13] = biological target: T8, human FcRn (soluble human FcRn complexed with beta2-microglobulin) (human, UniProt P61769 21-119); test: SPR (Biacore), pH 7.0, 25 C, antibody captured by Protein L, human FcRn as analyte
T8 construct: also called hFcRn

[14] = biological target: T7, human FcRn (soluble human FcRn …); test: SPR (Biacore), Protein L capture, hFcRn analyte, pH 7.0; remark: listed apart in the source

B1: IL6R-BF648/IL6R-L (antibody, human IgG1)
heavy: not shown
light: DIQMTQSPSSLSASVGDRVTITCRASQDISSYLNWYQQKPGKAPKLLIYYTSRLHSGVPSRFSGSGSGTDFTFTISSLQPEDIATYYCQQGNTLPYTFGQGTKVEIK
notes: IL6R-B3 with P238D; copies: 2 + 2
KD (IIaH)/KD (IIb) [1]: 33.9 | KD (IIaR)/KD (IIb) [2]: 13 | Kd [3]: 1500 nM

B2: IL6R-BP082/IL6R-L (antibody, human IgG1)
heavy: QVQLQESGPGLVKPSETLSLTCAVSGHSISHDHAWSWVRQPPGEGLEWIGFISYSGITNYNPSLQGRVTISRDNSKNTLYLQMNSLRAEDTAVYYCARSLARTTAMDYWGEGTLVTVSSASTKGPSVFPLAPSSKSTSGGTAALGCLVKDYFPEPVTVSWNSGALTSGVHTFPAVLQSSGLYSLSSVVTVPSSSLGTQTYICNVNHKPSNTKVDKKVEPKSCDKTHTCPPCPAPDLLGGDSVFLFPPKPKDTLMISRTPEVTCVVVDVSHEDPEVKFNWYVDGVEVHNAKTKPREEQYNSTYRVVSVLTVLHQDWLNGKEYKCKVSNKALPKPIEKTISKAKGQPREPQVYTLPPSRDELTKNQVSLTCLVKGFYPSDIAVEWESNGQPENNYKTTPPVLDSDGSFFLYSKLTVDKSRWQQGNVFSCSVMHEALHNHYTQESLSLSP
light: B1 light
notes: copies: 2 + 2
KD(IIb) of the parent polypeptide/KD(IIb) of the altered polypeptide [4]: 5.6 | KD (IIaH)/KD (IIb) [1]: 69 | KD (IIaR)/KD (IIb) [2]: 22.5 | Kd [3]: 1200 nM

B3: IL6R-BP213/IL6R-L (antibody, human IgG1)
heavy: B2 heavy with H270D, P273G, K332R
light: B1 light
notes: Anti-human IL-6 receptor IgG1 Fc variant
Kd [5]: 160 nM | Kd [6]: 63000 nM | KD(IIb) of the parent polypeptide/KD(IIb) of the altered polypeptide [7]: 17.5 fold

B4: IL6R-BP205/IL6R-L (antibody, human IgG1)
heavy: B2 heavy with P273G, Y298D, K332R
light: B1 light
notes: as for B3
Kd [8]: 26000 nM | Kd [6]: 65000 nM

B5: IL6R-BP212/IL6R-L (antibody, human IgG1)
heavy: B2 heavy with H270D, P273G, Y298D, K332R
light: B1 light
notes: as for B3
Kd [8]: 2200 nM | KD(IIb) of the parent polypeptide/KD(IIb) of the altered polypeptide [7]: 16.7 fold

B6: IL6R-BP129/IL6R-L (antibody, human IgG1)
heavy: B2 heavy with Y298D
light: B1 light
notes: copies: 2 + 2
KD(IIb) of the parent polypeptide/KD(IIb) of the altered polypeptide [4]: 8 | KD (IIaH)/KD (IIb) [1]: 77.5 | KD (IIaR)/KD (IIb) [2]: 29.3 | Kd [3]: 1500 nM

B7: IL6R-BP208/IL6R-L (antibody, human IgG1)
heavy: B2 heavy with G239D, H270D, P273G, K332R
light: B1 light
notes: as for B3
Kd [8]: 8300 nM | Kd [6]: 55000 nM

B8: IL6R-BP209/IL6R-L (antibody, human IgG1)
heavy: B2 heavy with D235E, G239D, H270D, P273G, K328A, K332R
light: B1 light
notes: as for B3
Kd [5]: 5100 nM | Kd [6]: 41000 nM | KD(IIb) of the parent polypeptide/KD(IIb) of the altered polypeptide [7]: 80.4 fold

B9: IgG1-F327 (antibody, name in EU numbering)
heavy: QVQLQESGPGLVKPSETLSLTCAVSGHSISHDHAWSWVRQPPGEGLEWIGFISYSGITNYNPSLQGRVTISRDNSKNTLYLQMNSLRAEDTAVYYCARSLARTTAMDYWGEGTLVTVSSASTKGPSVFPLAPSSKSTSGGTAALGCLVKDYFPEPVTVSWNSGALTSGVHTFPAVLQSSGLYSLSSVVTVPSSSLGTQTYICNVNHKPSNTKVDKKVEPKSCDKTHTCPPCPAPELLGGPKVFLFPPKPKDTLYISREPEVTCVVVDVSHEFPEVKFNWYVDGVEVHNAKTKPREEQYNSTYRVVSVLQVLHADWLNGKEYKCKVSNKALPAPIEKTISKAKGQPREPQVYTLPPSRDELTKNQVSLTCLVKGFYPSDIAVEWESNGQPENNYKTTPPVLDSDGSFFLYSKLTVDKSRWQQGNVFSCSVMHEALHYHYTQKSLSLSP
light: not shown
notes: Fc variant of VH3-IgG1; copies: 2 + 2
Kd [9]: 65 nM

B10: IgG1-F492 (antibody, name in EU numbering)
heavy: B2 heavy with D235E, D240P, P259V, V307A, T309A, N327G, K332A, M430L, N436Y, E441K
light: not shown
notes: copies: 2 + 2
Kd [10]: 98 nM

B11: IgG1-F398 (antibody, name in EU numbering)
heavy: B9 heavy with E258T, N288E, V310P, M430I
light: not shown
notes: as for B9
Kd [11]: 4.4 nM

B12: IgG1-F421 (antibody, name in EU numbering)
heavy: B9 heavy with K241S, E258T, F272D, Q309A, A313H, M430A
light: not shown
notes: as for B9
Kd [12]: 130 nM

B13: IgG1-F393 (antibody, name in EU numbering)
heavy: B9 heavy with E258T, F272D, N288E, Q309T, V310P, A313Q
light: not shown
notes: as for B9
Kd [11]: 12 nM

B14: IgG1-F936 (antibody, name in EU numbering)
heavy: B2 heavy with D235E, G239R, T252V, M254Y, K332A, N436Y, E441K
light: not shown
Kd [13]: 320 nM

B15: IgG1-F450 (antibody, name in EU numbering)
heavy: B9 heavy with E258T, F272D, Q309P, L311E, A313Q, N327G, M430Y
light: not shown
notes: copies: 2 + 2
Kd [14]: 520 nM

B16: IgG1-F941 (antibody, name in EU numbering)
heavy: B9 heavy with K241S, E258T, F272D, N288E, Y438V
light: not shown
Kd [13]: 12 nM

B17: IgG1-F527 (antibody, name in EU numbering)
heavy: B9 heavy with K241S, Y254M, E258T, P259V, F272D, V310P, A313Q, N327G, M430Y
light: not shown
notes: copies: 2 + 2
Kd [10]: 9.4 nM

B18: IgG1-F529 (antibody, name in EU numbering)
heavy: B9 heavy with K241S, Y254M, E258T, P259T, F272D, A313Q, M430F
light: not shown
notes: copies: 2 + 2
Kd [10]: 25 nM

B19: IgG1-F445 (antibody, name in EU numbering)
heavy: B9 heavy with K241S, Y254M, E258T, P259A, F272D, A313H, M430L
light: not shown
notes: copies: 2 + 2
Kd [14]: 62 nM

B20: IgG1-F434 (antibody, name in EU numbering)
heavy: B9 heavy with K241S, Y254M, E258T, P259V, F272D, N327G, M430Y
light: not shown
notes: as for B9
Kd [12]: 20 nM

B21: IgG1-F419 (antibody, name in EU numbering)
heavy: B9 heavy with K241S, E258T, F272D, Q309A, A313H, K362H
light: not shown
notes: as for B9
Kd [12]: 160 nM

B22: IgG1-F462 (antibody, name in EU numbering)
heavy: B2 heavy with D235E, D240P, P259A, V310P, N327G, K332A, M430L, N436Y, E441K
light: not shown
notes: copies: 2 + 2
Kd [14]: 85 nM

B23: IgG1-F382 (antibody, name in EU numbering)
heavy: B2 heavy with D235E, D240P, P259V, V307A, T309A, K332A, M430L, N436Y, E441K
light: not shown
notes: as for B9
Kd [11]: 87 nM

B24: IgG1-F357 (antibody, name in EU numbering)
heavy: B9 heavy with Q309T, V310P, A313Q, N327G, M430I
light: not shown
notes: as for B9
Kd [9]: 16 nM

B25: IgG1-F329 (antibody, name in EU numbering)
heavy: B9 heavy with E258T, N288E, Q309T, V310P, A313Q
light: not shown
notes: as for B9
Kd [9]: 12 nM
